Tests used:
[1] = molecular target: Human TAp63α (aa10-616, TEV site inserted at aa570 and V599M) (human); experiment: SEC
native gel or EMSA = molecular target: the molecule itself; experiment: native gel or EMSA

Row | stoichiometry N [1] | Molecule | stoichiometry N (native gel or EMSA)
1 | 2 | Human TAp63α (aa10-616, TEV site inserted at aa570 and V599M) (natural protein) | –
2 | – | TAp63α, endogenous in mouse ovaries, untreated (closed dimeric form) (natural protein, mouse (endogenous in ovaries), UniProt O88898-1 40-680, looked up) MSQSTQTSEFLSPEVFQHIWDFLEQPICSVQPIELNFVDEPSENGATNKIEISMDCIRMQDSDLSDPMWPQYTNLGLLNSMDQQIQNGSSSTSPYNTDHAQNSVTAPSPYAQPSSTFDALSPSPAIPSNTDYPGPHSFDVSFQQSSTAKSATWTYSTELKKLYCQIAKTCPIQIKVMTPPPQGAVIRAMPVYKKAEHVTEVVKRCPNHELSREFNEGQIAPPSHLIRVEGNSHAQYVEDPITGRQSVLVPYEPPQVGTEFTTVLYNFMCNSSCVGGMNRRPILIIVTLETRDGQVLGRRCFEARICACPGRDRKADEDSIRKQQVSDSAKNGDGTKRPFRQNTHGIQMTSIKKRRSPDDELLYLPVRGRETYEMLLKIKESLELMQYLPQHTIETYRQQQQQQHQHLLQKQTSMQSQSSYGNSSPPLNKMNSMNKLPSVSQLINPQQRNALTPTTMPEGMGANIPMMGTHMPMAGDMNGLSPTQALPPPLSMPSTSHCTPPPPYPTDCSIVSFLARLGCSSCLDYFTTQGLTTIYQIEHYSMDDLASLKIPEQFRHAIWKGILDHRQLHDFSSPPHLLRTPSGASTVSVGSSETRGERVIDAVRFTLRQTISFPPRDEWNDFNFDMDSRRNKQQRIKEEGE | 2
3 | – | TAp63α, endogenous in mouse ovaries, phosphorylated after 0.5 Gy γ-irradiation (active tetrameric form) (natural protein, mouse (endogenous in ovaries), UniProt O88898-1 40-680, looked up, phosphorylated (phosphorylation dependent mobility shift on SDS-PAGE); the sites were not determined in this experiment) MSQSTQTSEFLSPEVFQHIWDFLEQPICSVQPIELNFVDEPSENGATNKIEISMDCIRMQDSDLSDPMWPQYTNLGLLNSMDQQIQNGSSSTSPYNTDHAQNSVTAPSPYAQPSSTFDALSPSPAIPSNTDYPGPHSFDVSFQQSSTAKSATWTYSTELKKLYCQIAKTCPIQIKVMTPPPQGAVIRAMPVYKKAEHVTEVVKRCPNHELSREFNEGQIAPPSHLIRVEGNSHAQYVEDPITGRQSVLVPYEPPQVGTEFTTVLYNFMCNSSCVGGMNRRPILIIVTLETRDGQVLGRRCFEARICACPGRDRKADEDSIRKQQVSDSAKNGDGTKRPFRQNTHGIQMTSIKKRRSPDDELLYLPVRGRETYEMLLKIKESLELMQYLPQHTIETYRQQQQQQHQHLLQKQTSMQSQSSYGNSSPPLNKMNSMNKLPSVSQLINPQQRNALTPTTMPEGMGANIPMMGTHMPMAGDMNGLSPTQALPPPLSMPSTSHCTPPPPYPTDCSIVSFLARLGCSSCLDYFTTQGLTTIYQIEHYSMDDLASLKIPEQFRHAIWKGILDHRQLHDFSSPPHLLRTPSGASTVSVGSSETRGERVIDAVRFTLRQTISFPPRDEWNDFNFDMDSRRNKQQRIKEEGE | 4

Source: paper doi:10.1101/681007 (bioRxiv, 2019)
